One data set deals with LUAD-0061AS3 PDX tumors. Description: NSCLC PDX model efficacy (SLC3A2-NRG1). It counts as in vivo, mice. The procedure:
Characterization of the […] PDX model. H&E staining, TTF-1, and phospho-HER3 IHC (FIG. 5A, left to right). […] (FIG. 5B). Tumor volumes were measured twice weekly and plotted overtime. Results represent the mean±SEM. […] Western blotting was performed twice for each protein and representative immunoblots of phosphorylated (p) and total (t) proteins are shown (FIG. 5C).
Crushed PDX tumor samples were mixed with Matrigel (50%) and injected into the subcutaneous flank of 6-week-old female NSG (LUAD-0061AS3) or Balb/c nude (OV-10-0050) mice. When tumors reached approximately 100-150 mm3, mice were randomly assigned to groups of 5-8 and treatment was commenced. There were 2 mice per group with bilateral flank tumors for the protein phosphorylation/expression study in the LUAD-0061AS3 PDX model. Drugs were administered once, and then tumors were collected at 2, 24, and 168 hours posttreatment. Afatinib was administered by oral gavage once daily as a suspension (in 0.5% methylcellulose-0.4% Tween-80) on a 5-days-on and 2-days-off schedule. […] Mice were observed daily throughout the treatment period for signs of morbidity and mortality. Tumor length and width and animal weights were measured twice weekly. Tumor volume was calculated using the empirical formula V=length×width 2×0.52. The percentage change in tumor volume of each tumor was calculated using the formula [(V2−V1)/V1)]×100, where V1 is the starting tumor volume and V2 is the final tumor volume.
The 5 mg/kg daily dose of afatinib is equivalent to the human dose of […] daily, which is the maximum approved dose for patients.
The tumor volume as a function of time is illustrated in FIG. 5B, and the AUC computed for each group to facilitate comparison of tumor volume between groups at the last date all groups had surviving animals (day 35) was determined. […] The highest dose of afatinib (15 mg/kg) was also effective at causing regression of six of seven tumors in the.

For data set [1] the following is noted: in vivo.
Excerpt: Patients are monitored during weekly dosing for a period of 28 days (i.e., throughout C1W1, C1W2, C1W3, and C1W4) for the occurrence of DLTs. […] The grading of AEs is based on the “common terminology criteria for adverse events” (CTCAE) version 5.0. Hematologic toxicity includes febrile neutropenia, neutropenic infection, grade 4 neutropenia >7 days, grade ≥3 thrombocytopenia for >7 days, grade ≥3 thrombocytopenia with clinically significant bleeding, grade 4 thrombocytopenia, and grade ≥3 anemia >7 days.
In the current study, 6 patients were treated in a safety run-in phase with an induction regimen consisting of a 3,000 mg loading dose followed by 2,000 mg weekly for 3 weeks. […] Enrollment continued under Induction Regimen 2 consisting of 3,000 mg once weekly for 4 weeks. The next 6 patients enrolled were treated with Induction Regimen 2.
Upon review, the next 6 patients enrolled and initiated treatment with Induction Regimen 2.
Upon review, all subsequently enrolled patients treated under Protocol Version 2.0 initiated treatment with Induction Regimen 2.
In data set [2] the test system is KRAS wt pancreatic ductal adenocarcinoma with ATP1B1-NRG1 gene fusion. Description: Compassionate access case, MoST program. Format: in vivo, human. Here is the method: FIGS. 10A-10B are representative computed tomography (CT) images of a liver metastasis in a patient with KRAS WT pancreatic cancer that harbors an ATP1B1-NRG1 gene fusion. The patient was treated with seribantumab.
In brief, patients with advanced solid tumors of any histology undergo molecular screening. Genomic alterations are reviewed at molecular tumor boards to identify appropriate biomarker-matched therapeutic sub-studies. Seven GI cancer patients with durable clinical benefit were identified by case review, including a patient with KRAS WT pancreatic cancer harboring an ATP1B1-NRG1 gene fusion. Neuregulin 1 (NRG1) gene fusion proteins are an important oncogenic driver, enriched amongst KRAS wild-type PDAC (8-10%) (Aguirre A J., Clin. Cancer Res. 2019 August; 25(15)). NRG1 is the predominant ligand of ERBB3. These fusion proteins drive tumor progression through aberrant ERBB3 activation. […] The patient had previously exhausted available therapies and had been treated as follows: (1) October 2019 to January 2020, FOLFIRINOX, (2) January 2020 to June 2020, FOLFIRI, (3) June 2020 to August 2020, Gemcitabine/Abraxane, (4) August 2020 to December 2020, FOLFIRI.

The test system of data set [3] is NRG1-β1-stimulated MCF-7 cells. The data set is described as follows: NRG1-β1-stimulated growth of MCF-7 cells. Format: cell-based, human. The procedure:
MCF-7 cells were treated with the indicated concentrations of NRG1-b1 for 10 minutes, and then cell extracts were prepared and subjected to Western blotting for the indicated phosphorylated (p) or total (t) proteins (FIG. 2A). […] Data were analyzed by nonlinear regression using GraphPad Prism 8. There were four replicates of each condition and data represent the mean±SD. […] Cells were counted on the days indicated on the graph. Results represent the mean±SD of duplicates of each condition in one representative experiment. MDA-MB-175-VII (FIG. 2D) and LUAD-0061AS3 (FIG. 2E) cells were treated with the indicated concentrations of inhibitors for 48 hours, and then caspase 3/7 enzymatic activity was measured in cell homogenates. Carfilzomib (20S proteasome inhibitor) was used as a positive control for apoptosis. […]
For the time-course experiments, cells were plated at a density of 5,000 (HCC-95) or 10,000 (all others) cells per well in 12-well tissue culture plates, and then treated 24 hours later (time 0) with the respective agents. […] Cells were trypsinized and counted at the relevant time-point shown on the graphs. […] AlamarBlue is a cell permeable […] dye that is reduced when it enters the mitochondria and emits fluorescence at a different wavelength (Gloeckner H, J. Immunol. Methods 2001; 252:131-8). […]

Entries after “also recorded” stand apart in the source; their conditions may differ.

B1: seribantumab: anti-ERBB3 (HER3) fully human monoclonal antibody; heavy and light chains SEQ ID NOs: 12 and 13 (antibody)
heavy: EVQLLESGGGLVQPGGSLRLSCAASGFTFSHYVMAWVRQAPGKGLEWVSSISSSGGWTLYADSVKGRFTISRDNSKNTLYLQMNSLRAEDTAVYYCTRGLKMATIFDYWGQGTLVTVSSASTKGPSVFPLAPCSRSTSESTAALGCLVKDYFPEPVTVSWNSGALTSGVHTFPAVLQSSGLYSLSSVVTVPSSNFGTQTYTCNVDHKPSNTKVDKTVERKCCVECPPCPAPPVAGPSVFLFPPKPKDTLMISRTPEVTCVVVDVSHEDPEVQFNWYVDGVEVHNAKTKPREEQFNSTFRVVSVLTVVHQDWLNGKEYKCKVSNKGLPAPIEKTISKTKGQPREPQVYTLPPSREEMTKNQVSLTCLVKGFYPSDIAVEWESNGQPENNYKTTPPMLDSDGSFFLYSKLTVDKSRWQQGNVFSCSVMHEALHNHYTQKSLSLSPGK
light: QSALTQPASVSGSPGQSITISCTGTSSDVGSYNVVSWYQQHPGKAPKLIIYEVSQRPSGVSNRFSGSKSGNTASLTISGLQTEDEADYYCCSYAGSSIFVIFGGGTKVTVLGQPKAAPSVTLFPPSSEELQANKATLVCLVSDFYPGAVTVAWKADGSPVKVGVETTKPSKQSNNKYAASSYLSLTPEQWKSHRSYSCRVTHEGSTVEKTVAPAECS
B1: the tumors with regression result with LUAD-0061AS3 PDX tumors (0.75 mg seribantumab twice weekly) is “four of seven”; in the data set on LUAD-0061AS3 PDX tumors (1 mg seribantumab twice weekly) it was “six of seven”. For the same molecule, in the data set with LUAD-0061AS3 PDX tumors (1 mg BIW seribantumab vs 15 mg/kg daily afatinib), the “efficacy compared with afatinib” value was “as effective as the 15 mg/kg daily dose of afatinib; also recorded: as effective as the highest dose of afatinib”. The maximum tumor reduction with LUAD-0061AS3 PDX tumors (1 mg seribantumab twice weekly, by day 42) is on record as 57.2%±2.6%. In addition, the tumor volume entry with LUAD-0061AS3 PDX tumors (all doses of seribantumab tested (0.6, 0.75, 1 mg twice weekly)) is given as “bigger decrease in tumor volume”. Moreover, the tumor regression entry in the data set on LUAD-0061AS3 PDX tumors (dosage lower than that used in human trials) was “more than 50%”. For the same molecule, the TEAEs result in data set [1] was “Grade 1 diarrhea, nausea, fatigue, rash and pruritis”. In addition, in data set [2] (June 2021, 26×26 mm before seribantumab), the “liver metastasis NTL1 liver seg 8 on CT” value is on record as “resolved”. The “duration of ongoing treatment at data cutoff” value in data set [2] (one patient) is recorded as at least 8 months. Also, the tumor response result in data set [2] (person, treated from December 2020) is “partial response”. For the same molecule, in data set [3] (pretreated 2 μmol/L seribantumab 1 hour, 10 ng/mL NRG1-β1, up to 10 days), the “NRG1-β1-stimulated growth, temporal study” value is reported as “prevented NRG1-β1-stimulated growth completely”. Moreover, the “growth (viability) of NRG1-β1-stimulated cells” value in data set [3] (seribantumab 0.125 μmol/L (lowest used), NRG1-β1 0-5 ng/mL, 96 hours) is on record as “largely suppressed growth”.

The values are drawn from patent US20220288204A1, “DOSAGE AND ADMINISTRATION OF ANTI-ERBB3 (HER3) MONOCLONAL ANTIBODIES TO TREAT TUMORS ASSOCIATED WITH NEUREGULIN 1 (NRG1) GENE FUSIONS” (ELEVATION ONCOLOGY, INC., priority 2021, published 2022).
